PMC9681084, “MYB44-ENAP1/2 restricts HDT4 to regulate drought tolerance in Arabidopsis” (PLOS Genetics, 2022)

Biological target: T1, GST-MYB44 (Arabidopsis, UniProt Q9FDW1 1-305)
T1 construct: MYB44, Arabidopsis; the CDS ligated to pGEX-KG; source: E. coli, purified (Glutathione Sepharose resin)
Test: pull-down; GST-MYB44 as bait, GST as control; purified proteins from E. coli incubated overnight at 4°C, washed four times, western blot
Settings: both partners purified

T1 sequence (Q9FDW1 whole entry): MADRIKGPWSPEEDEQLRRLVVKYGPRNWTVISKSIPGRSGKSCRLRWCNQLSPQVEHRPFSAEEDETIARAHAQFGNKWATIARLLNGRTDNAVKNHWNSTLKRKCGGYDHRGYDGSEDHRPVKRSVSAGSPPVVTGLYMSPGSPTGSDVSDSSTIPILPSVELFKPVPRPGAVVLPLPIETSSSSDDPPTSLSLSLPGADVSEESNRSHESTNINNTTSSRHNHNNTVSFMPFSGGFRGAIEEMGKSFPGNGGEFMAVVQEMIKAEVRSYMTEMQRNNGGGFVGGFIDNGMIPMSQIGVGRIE

Row | binding result | Binder
1 | binds | MBP-ENAP1 (natural protein, Arabidopsis, UniProt Q8VZI9 1-249, looked up, ENAP1, Arabidopsis, AT3G11100; the CDS ligated to pVP13 (His tag removed); source: E. coli, purified (Amylose resin)) METTPETQSKTHRLPAGREDWWSEDATATLIEAWGDRYVNLNRGNLRQNDWKEVADAVNSSHGNGRPKTDVQCKNRIDTLKKKYKTEKAKPLSNWCFFDRLDFLIGPVMKKSSGAVVKSALMNPNLNPTGSKSTGSSLDDDDDDDDDDEEDDDDAGDWGFVVRKHRKVEDVDSSEGSAFRELARSILKLGEAFERIEGKKQQMMIELEKQRMEVAKELELQRMNMLMEMQLELEKSKLGKRRAASGKKL
2 | binds | His-HDT4 (enzyme, Arabidopsis, UniProt Q9M4T3 1-203, looked up, HDT4, histone deacetylase of the HD2 family, Arabidopsis; the CDS ligated to pET28a; source: E. coli, purified (Ni-NTA agarose resin)) MEFWGIEIKPGKPFKVIQKDGFMVHASQVTLGDVEKVKKDETFAVYVKIGDDENGFMIGNLSQKFPQFSIDLYLGHEFEISHNSTSSVYLIGYRTFDAFDELDEEIDSDSELDEYMEQQIAALPQNEINPEEDDESDSDEMGLDEDDDSSDEEDVEAEAPLKVAPPSKKMPNGAFEIAKGGKKNKSSGGKKRCPFPCGPSCKK
